Test: soluble on expression in E. coli; label from the status in PepcDB or PDB records

Sequence | soluble on expression in E. coli
MAHHHHHHMPINPEYIPLPKSKEMFAIASWRDSPGLNATPAAHPGVSGSPHLASLDALRNGKGMAGMHAAATTTTTTTNTVTAAGGSLLPPAVQPAEDSKDAAKSKAPLTVAAGKKKKRKPASGATTSTASVAGSGVRSDDVDDFFVHILLPSCVSMQTLEFELQAQTTPLKSIEVGLPKVLFPRKPVGGAGGDASPPTTTALAPAVASAKIVSSPSCAPAVNPTNNELSLPLMRLPPADLPEPAPSESSCAAPPSASAAAAAHVNGDGTASAAAASGEHHGGEYQVSLLFAEKAEAEKTVTFVQRRWPTAAVSLASRSRSVLNATLVLKGMPNQAKTETVLTEMQNLPHTPSYVRLLRSERGVFKGVVFVKYANCEIAEECKLRLEKFVLGSRPLKVEFKKKSTAAASVSAAVIESKRSLQELVRELRVSAEHEGFHLSRSDVAKEALKVLKQLCQSYGLLFDMNDQQVTVRRVLGSNGIGSEKPSPALRPQSMAPAWAPATPAPLRPMDFKGISHWKDIRSQASTLGIMRPLGPEDGKPAFSAGRGRPL | not soluble
ASPLMSRTPAFERAAALARAKSAALHIVAFDYVEGLAAAGLLNERALNEMRDGYLASHRQWLEQQAQLIRQSGVEVTTEVVWVMRPLDEIMAHVHEIKPSMVIKDIGHESWLTRAMFTSLDIRLLHDCPVPLHLVANVDH | not soluble
MGSDKIHHHHHHMESFYRTHAYLVEHTNAPVRRDLMDEIDWSDRLIGIKGTRGVGKTTFLLQYAKEKFGTDRSCLFINMNNFYFSGHSLVDFANEFQKRGGKVLLIDQVFKHPEWSKELRMCYDRFPSLKIVFTGSSVMRLKEENLELRDIAKSYNLRGFSFREFLNLQTGMKFRAYSLEEILSTHEQIAKGVLSKVRPLDYFQDYLHHGFYPFFLEKRNFSENLLKTMNMMVEVDILLIKQIELKYLSKIKKLLYLLAVDGPKAPNVSQLASDVQTSRATVMNYIKYLADARLINLVYPKGEEFPKKPSKIMMHNSNLMYSIYPVKVEEQDVLDTFFVNTLWKDHKVHKGDKNVSFMVDEVMPFKICAEGTKIKNNPDVTYALQKAEIGRGNQIPLWMFGFLY | not soluble
MGSDKIHHHHHHMTFDEYEVAINSEFTLQGTLTKPKAGGKYAAVIIIAGSGEIDRDGTILPLKLESNIYKDLAHVMAKLGVVTLRFDKRGVGKSDGEFLKTGMWDLVNDIESTITYLKEQPFVDPENIILAGHSEGCMLATVVNARTPVNGLILLTGAAESLEEATKRQREIAYKELKEQKGIKGKLMRLLDVEKRGEKQMEKIKEKMMNTEKDTIKVGFKPMNAKWFREHFQHDIYKDLQQVTCPVLAIAGDKDFQANPEKAKRIGDYVQGDSEVHVIKDMDHSLKSFEGDFKALEFKKNYEEGAGKPLHPMLEEIIMNWISTNFILHKIPVSTLSEYEGDGKESNCL | not soluble
EHRSIMNTLNFLESHYPVTAEDAYLLKTNYVFDVSISELFGWFIGDGRLVILPPNGEKSPQLCMDYIETYKVTHINFVPAMLHVFLEMAKDNKRFTEDGPLKYMMVAGEAFPKVLVKKAVSLFTNCRVENIYGPTEASIYAAYFGCGKGDIASHHTPIGKP | not soluble
MSLSNTVHVFFGNKDSKVQVFKDKGTNQFANQVNLFMGDYLDTYFNRDKDTDLDKLKKYYGSGIDIKGQESRDIDMKLEHVSLVEIKSSVAVYDINYQIKDGDNWKSVLARINVPYKEKDGRYYVSDLPYYTDQSSYVADTVKGNSKLPTQSEVEGLSNKKLSGLKDYIVAFFKAYTSGDNSQMAPFSGAVSPLKSYEFEELDYAYFIKHKHSIIAVVQVTFKNEFGVKHQENFTLEVTESKQTSSYYVKSMKHGIDEDCRKEMKMDEGHHHHHH | soluble
MGSDKIHHHHHHMKHGILVAYKPKGPTSHDVVDEVRKKLKTRKVGHGGTLDPFACGVLIIGVNQGTRILEFYKDLKKVYWVKMRLGLITETFDITGEVVEERECNVTEEEIREAIFSFVGEYDQVPPAYSAKKYKGERLYKLAREGKIINLPPKRVKIFKIWDVNIEGRDVSFRVEVSPGTYIRSLCMDIGYKLGCGATAVELVRESVGPHTIEESLNVFEAAPEEIENRIIPLEKCLEWLPRVVVHQESTKMILNGSQIHLEMLKEWDGFKKGEVVRVFNEEGRLLALAEAERNSSFLETLRKHERNERVLTLRKVFNTR | not soluble
MGSDKIHHHHHHMFKSTDNYIASNELTLAVNAAIALEKPLLIKGEPGTGKTQLAEELARSLNCKLYQWHIKSTTKAQQGLYEYDAVSRLRDSQLGDARVHDIGNYIVKGKLWQAFEEDQRSILLIDEIDKADIEFPNDLLQELDKMEFYVYETQQVIKAKQRPIIIITSNNEKELPDAFLRRCFFHYIKFPTKDEMAKIIDVHHPNVKQDLLQQALEVFFDLRDVNGIKKKPSTSELIDWLKLLISDDISQDTLLDKKSDIIPLFGALLKNEQDVSLIEKLAFMSRRNR | not soluble
MTSLIGTHSGKFHCDEAFACFMLKQLPQFKDHSILRTRDAAQLEKCDIIVDVGGIFDHSKQRYDHHQRGFTDTMRTLEKLNFDTKLSSAGLVYAHYGREVINQILGGNVSSSMIDLFYHRLYEQFVESIDAIDNGISQYDGVPRYHSSGNLSSRTGQFNSHWNEPENDADERFQQAMQFIGEEFSRSVKYLANVWWPAREIIEAAVDKRFEIDASGRIILIENGGCPWKEHFFDIEVEKNIADDNITYILFSDSTNASWRVQAIPVDKMSSFENRMPLPAAWRGLRDDDLSKESGIPGGVFVHISGFIGGNLTREGAIAMARKALEIGEENPVKKAKLGN | soluble
MGLIKTIGRKPSVQWALSHLASGYLRLVRRTNRFTLEPADAYARLDAFGPFIAAMWHGQHIMISFMSRPQDRVATIISRSPDGNINTMALTRMGVRVMRASGARGRAVKDARAKGGAEGLRAMVKALKGGETVAFSADVPKVSRVCDAGIILLARFSGAPIVPVAVVTSRHIRFNSWDRACLGLPFGRGAMVFGEATFVPREVTPEEVDALRQRVQDELNRVHDRAYTLVGLEHHHHHH | soluble
MGVYGMEQNFGLISIIMAAYNAENTIEKAVMSVMAQTYTQFELIIINDCSTDKTLSIIKKFEEFDKRIFLINNSYNRGVSYSRRYGLEKARGEWIAILDSDDAWAADKLEKQIRLQKEKNADLVYTGSAFMDSSGNSIEWYLHVPPEIGYRKLLKQNLISNSSALVRKELYMQYYASGDNMHEDFAIWLRILKTGRKAYGIDEPLLIYRFMRKSKSGNKLIAAKMNWNTYRYIGLDVVSRMYYMIWYMFNGLKKYITLNNEVAKV | not soluble
MGSDKIHHHHHHMSSLTKMLLILDLFSVDKPIWSADEIIQYCGHSRPTGYRYVKELCDAGLLRRAEGGYSLGPRVIELDYYIRQCDPLLIACRPVMVRVAQESGCDVLLASMYGTKIMAVHQELAHETGQIAFGRGRPMPLFRGGGSKVLLASMTASQLKKLYDRYGAEIAEAGLGATWADFRKQMLKYRNDGHVVSIGELDPNAAGVAIPIPVGDALDPAALVILTTRSRFDLMEKALLVDMAMNAARQIETSMRGNREVQAKALLLS | not soluble
MGSDKIHHHHHHMCPMQNYPYVITVSSEKGGVGKTTLATNLAIYLKALDENLPVTIFSFDNHFTVDRMFEIRGQRLTGSVADLLMESPPRDLIHTGQYGVGYIPSSASLNDLKGSIRGPMVLARLLAASRIPGVLIIDTRPDLDMLTQNALFAADRAIIPVKDMPSLENCRNIFALFEQRGLDRKSLSLIPCLVDERIKFDGPFNDQKTLLKAYAINRGYRCLDVYISKSPKVESLNTNPDGKIYPILTHAKWTEVHGQFAQLAQILINEYNATTEPRSLLFHKWLQTEESRKKEEFFARLSGIKSQCLLCGKPVSDDGDGRHSFYFEVSDGSAAGFFEEECFLTMLMTNIYNMDVSMVDDAPTVHLMRDSSRESAFVFRPASNGGAVEFHRFSLDGTLLIKKNYPLREYEGGLLRRERSRLYTLMTEALGTAGAGSSDRFILVHPVTRDNPQGILRDESYRGLTKLKQHIAAQIASS | not soluble
GPGSMLRFTHRALTATPERFSVLGTTHPKPKRTGFGRNNKMRSKPSDNVAWYDKGPVEWLPRPVRLTYDHLDQLQQWMMRATLDGRTEEFNRIRDLHREWSQHPLMPVLGDVEPKFPLNLFKQNHRAKKRFLVRWHKANTPANWLWMPRGPTVVTPLHRTNPTQYPENWKQMVQRKSGTGTPS | not soluble
MEQLGSEPETYQIMKTIEKSIIENDNVDLEQYLLFWEHVCNVMCSWGTIFSFVVKDVTAKLEKLTQMRSSDPDSYRTIIGMATKESENGTIRNQKPNRSGTGHLMVLNRALEFVIDLLDGVFTSNDENVSTIARSSYDKHLSQLHSWPIRTAVAAALYTLPRKPEFLCRLRGDMPEDDDNQFHDIFNRDGRDIVRRVNKLVENFELTDYNPSA | not soluble
MSLDNIERTLGQLFEGRDFEKEYQGLKQQVLHYQPIQDFFKEHKEEVTEQLVNQNLSNLYEFMTQHKKFTEQEETLMPGYAPKLVLNGEFITVTYYPTKEKIEEDKRRAVERRIRSLYMPKQVVDANLADFYTDEESRQLALVEAYQFLNNYPPKSGERVKGLFIHGSFGTGKSYLLGALAKELALKGISSTLVYLPEFMREVKQSISDNTVGEKIQFAKETEVLMLDDIGAESMTAWTRDEVLGAILQFRMQEELPTFFSSNYNMDQLENHLMFAQNGTEEKLKARRIMERVRYLSKEVNLEGEGHHHHHH | soluble
MGSDKIHHHHHHMSRMIRFHKFGAADVLRCEEQAEPSPAADEVQIRVEAVGVSWYDVLWRQNLAPSQARLPAGIGHEMAGVVTAVGEGVDDIAVGDRVASFPATSANDHPVYGDVIVLPRTAITRYPNVLTPIEASVHYTPLLIAYFAYVDLARAKAGQTALVTDASHCAGPAFVQLGRALGLKVFAATKEAAQRDYLLGLGADKVIVTEEQDLLLQIGKYTDGRGVDMVLDGMGGPQMSLLGDVLAPRGSLVLYGLQGGNQTPFPACAAFQKNIQFYVHCIGNFTGKPELGISQDQVALQRALRDINQFTADQLLTPQIIKVYPFEQVVEAHRYMDQCPCGGRVVLDMAQH | not soluble
MGSDKIHHHHHHMENQTGIFNSYKIDPAHFDEAWLPTGDVRMHYKHLMETFKGLDIEEYLKINELAKGNLFNQGVTFNVYSENAEGVERLFPFDLFPRMIPSEEWKTIEVGIKQRNKAINLFLWDIYHEQKILKDKIVPSELLFSSQFYKKEMIGVDPPAGIYIHITGTDIIKHNDGKYYVLEDNLRCPSGVSYVLSNRETMKKIFFNLFSRYHVKPIMQYTEKLLSTIRSVAPDRIDNPLCVILTPGTYNSAYFEHSFLAHQMGIQLVEGRDLFVEKNFVYMKTIKGPKRVDVIYRRVDDDFIDPLVFNPKSVLGVPGLMSAYQAGNVTIINAPGTGVADDKAVYTYVPDIIKYYLGEEPILNNVPTYRCERPDEMKYVLENMHNLVVKPVDESGGYGVFIGNRKTKEEIEEYKKLILDTPRKYIAQPIMSLSVLSTFIEDSNESEQRHIDLRSFALMGKEETYVLDGGLTRVALSKGNLIVNSSQGGGSKDTWVIENY | not soluble

Reference: the DeepSol protein solubility set
